Read-outs that look alike come from different tables or passages of the source. Each block holds one binder with its values, some of them ahead of it.
What was measured:
[1] = molecular target: huNav1.7α + β1 (human); assay: cell-based or functional assay
[2] = molecular target: huNav1.7α + β1 (human); assay: cell-based or functional assay; remark: listed apart in the source
[3] = molecular target: T1, huNav1.7α+β1 (human, UniProt Q15858 1-1988; Q07699 19-218); assay: cell-based or functional assay
[4] = molecular target: T1, huNav1.7α+β1; assay: binding FACS, HEKa/β1 cells
Outline: (§1)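 Cells in FACS buffer (PBS, 10% FBS, NaN₃) were incubated with purified FLAG3-tagged ISVD for 30 minutes at 4° C. Bound ISVD was detected by flow cytometry with murine anti-Flag, and dead cells were excluded with 1 μg/mL propidium iodide.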

[5] = molecular target: T2, huNav1.7α+β1-β2-β3 (human, UniProt Q15858 1-1988; Q07699 19-218; O60939 30-215; Q9NY72 23-215); assay: binding FACS, HEK FlpIn cells
T2 construct: 5N11S variant; also called huNav1.7-beta1-beta2-beta3; huNav1.7α+Navβ1-Navβ2-Navβ3

[6] = molecular target: T3, huNav1.7α (human, UniProt Q15858 1-1988); assay: binding FACS, HEKa cells
T3 construct: HEK cells expressing the α subunit alone; also called HEKa; HEK huNav1.7α
Outline: as §1

[7] = molecular target: T4, huNav1.7α (human, UniProt Q15858 1-1988); assay: binding FACS, HEK
T4 construct: HEK cells expressing the α subunit without β subunits; also called huNav1.7 (alpha-subunit); Human Nav1.7α

[8] = molecular target: T5, huNav1.7α + β1 (human); assay: binding FACS, HEK
T5 construct: HEK293 cells; also called huNav1.7-beta1; huNav1.7-β1

[9] = molecular target: T5, huNav1.7α + β1; assay: cell-based or functional assay; remark: listed apart in the source
[10] = molecular target: T6, rhNav1.7α + β1-β2-β3 (rhesus monkey); assay: competition FACS vs EC40 of F103275B05(N93R), CHO FlpIn
T6 construct: also called rhNav1.7-beta1-beta2-beta3; rhNav1.7-β1-β2-β3

[11] = molecular target: T7, huNav1.7α + β1-β2-β3 (human, UniProt Q15858 1-1988; A5A6L6 19-218; O60939 30-215; Q2KI11 23-215); assay: competition FACS vs EC25 of F103275B05(N93R), HEK FlpIn
T7 construct: also called huNav1.7-beta1-beta2-beta3; huNav1.7-β1-β2-β3

[12] = molecular target: T7, huNav1.7α + β1-β2-β3; assay: competition FACS vs EC25 of F103275B05(N93R), CHO FlpIn
[13] = molecular target: T4, huNav1.7α; assay: cell-based or functional assay
[14] = molecular target: T7, huNav1.7α + β1-β2-β3; assay: cell-based or functional assay
[15] = molecular target: T4, huNav1.7α; assay: competition FACS vs EC25 of F103275B05(N93R), HEK
[16] = molecular target: T5, huNav1.7α + β1; assay: competition FACS vs EC25 of F103275B05(N93R), HEK
[17] = molecular target: T8, huNav1.7α (human Nav1.7 alpha subunit, expressed without β subunits) (human, UniProt Q15858 1-1988); assay: binding FACS, HEKa cells
T8 construct: also called HEK293 human Nav1.7α; HEKa Nav1.7α

[18] = molecular target: T9, huNav1.7α + β1-β2-β3 (human Nav1.7α co-expressed with Navβ1, Navβ2 and Navβ3) (human); assay: binding FACS, HEK FlpIn cells
T9 construct: also called huNav1.7-beta1-beta2-beta3

[19] = molecular target: T10, huNav1.7α + β1 (human Nav1.7α co-expressed with Navβ1) (human, UniProt Q15858 1-1988; Q07699 19-218); assay: binding FACS, HEKa/β1 cells
T10 construct: also called HEK293 human Nav1.7α + β1; HEKa/β1 Nav1.7α

[20] = molecular target: T11, rhNav1.7α+β1-β2-β3 (rhesus monkey α subunit with human β …); assay: binding FACS, CHO FlpIn cells
T11 construct: P2A cleaves it into α, β1, β2, β3; also called rhNav1.7-beta1-beta2-beta3

B1: F010301558 (VHH)
VHH: EVQLVESGGGLVQAGGSLRLSCAASGRILRIGYMRWHRQGAGKQREFVARITGDSATGYADSVKGRFTISRDNAKNTVYLQMNNLNPEDTAVYYCEALVTASVRGGSIHSGTYWGRGTLVTVSS
Qpatch IC50 [1]: 8 nM

B6: F010301162 (VHH)
VHH: EVQLVESGGGLVQPGGSLRLSCAASGMLFNRNTQGWYRQAPGKQRELVAFIFSGGWTNYNDSVKGRFTISRDNAKRTMYLQMNSLKPEDSAIYYCSLSRYQGQGTLVTVSS
Qpatch IC50 [2]: 32 nM

B7: F010301090 (VHH)
VHH: EVQLVESGGGLVQPGGSLRLSCAASGMLFNANTQGWYRQAPGKQRELVAFIFSGGWTTYNDSVKGRFTISRDNAKRTMYLQMNSLKPEDSAIYYCSLSRYQGQGTLVTVSS
Qpatch IC50 [2]: 22 nM

B8: F010301080 (VHH)
VHH: EVQLVESGGGLVQPGGSLRLSCAASGMLFNANTQGWYRQAPGKQRELVAFIFWGGYVTYNDSVKGRFTISRDNAKRTMYLQMNSLKPEDSAIYYCSLSRYLGQGTLVTVSS
Qpatch IC50 [2]: 14 nM

B9: F010301191 (VHH)
VHH: EVQLVESGGGLVQPGGSLRLSCAASGMLFNRNTQGWYRQAPGKQRELVAFIFSGGWTNYNDSVKGRFTISRDNAKRTMYLQMNSLKPEDSAIYYCALSVYQGQGTLVTVSS
Qpatch IC50 [2]: 63 nM

B10: F010301129 (VHH)
VHH: EVQLVESGGGLVQPGGSLRLSCAASGMLFNANTQGWYRQAPGKQRELVAFIFSGGWTNYNDSVKGRFTISRDNAKRTMYLQMNSLKPEDSAIYYCALSRYQGQGTLVTVSS
Qpatch IC50 [2]: 126 nM

B11: F010301090 (VHH)
VHH: EVQLVESGGGLVQPGGSLRLSCAASGMLFNANTQGWYRQAPGKQRELVAFIFSGGWTTYNDSVKGRFTISRDNAKRTMYLQMNSLKPEDSAIYYCSLSRYQGQGTLVTVSS
notes: vs F0103265A11: Y56W, N58T, V60N, L103Q
IC50 [M], electrophysiology [3]: 2.2e-08 M
Bmax relative to '535 [4]: 102%
EC50 [4]: 4.8 nM

B12: F010301191 (VHH)
VHH: EVQLVESGGGLVQPGGSLRLSCAASGMLFNRNTQGWYRQAPGKQRELVAFIFSGGWTNYNDSVKGRFTISRDNAKRTMYLQMNSLKPEDSAIYYCALSVYQGQGTLVTVSS
notes: vs F0103265A11: A31R, Y56W, V60N, S93A, R101V, L103Q
IC50 [M], electrophysiology [3]: 6.3e-08 M
Bmax relative to '535 [4]: 119%
EC50 [4]: 4.1 nM

B13: F010301080 (VHH)
VHH: EVQLVESGGGLVQPGGSLRLSCAASGMLFNANTQGWYRQAPGKQRELVAFIFWGGYVTYNDSVKGRFTISRDNAKRTMYLQMNSLKPEDSAIYYCSLSRYLGQGTLVTVSS
notes: also called F0103265A11(S53W, T57V, N58T, V60N)
IC50 [M], electrophysiology [3]: 1.4e-08 M
EC50 [5]: 5.1 nM
Bmax relative to '535 [4]: 122%
EC50 [4]: 3 nM
EC50 [6]: 26 nM

B14: F010301129 (VHH)
VHH: EVQLVESGGGLVQPGGSLRLSCAASGMLFNANTQGWYRQAPGKQRELVAFIFSGGWTNYNDSVKGRFTISRDNAKRTMYLQMNSLKPEDSAIYYCALSRYQGQGTLVTVSS
notes: vs F0103265A11: Y56W, V60N, S93A, L103Q
IC50 [M], electrophysiology [3]: 1.3e-07 M
Bmax relative to '535 [4]: 103%
EC50 [4]: 3.6 nM

B15: F010301162 (VHH)
VHH: EVQLVESGGGLVQPGGSLRLSCAASGMLFNRNTQGWYRQAPGKQRELVAFIFSGGWTNYNDSVKGRFTISRDNAKRTMYLQMNSLKPEDSAIYYCSLSRYQGQGTLVTVSS
notes: vs F0103265A11: A31R, Y56W, V60N, L103Q
IC50 [M], electrophysiology [3]: 3.2e-08 M
Bmax relative to '535 [4]: 115%
EC50 [4]: 3.8 nM

B16: 65ASP (Fc fusion)
chain: EVQLVESGGGLVQPGGSLRLSCAASGSIFNINSMAWYRRAPGKQRELVASSTNGGSTNYADSVKGRFTISRDNAKRVYLQMNSLTPEDTAVYYCNALLQPSIYDISRTYWGQGTLVTVSS
notes: also called F0103275B05-5GS-Fc; not shown: 5GS linker; Fc moiety
EC50 [7]: 21 nM
EC50 [8]: 45 nM
Qpatch IC50 [M], HEK cells [9]: 1.2e-07 M

B17: F010300468 (VHH)
VHH: EVQLVESGGGLVQPGGSLRLSCAASGSIFNINSMAWYRRAPGKQRELVASSTNGGSTNYADSVKGRFTISRDNAKRVYLQMNSLTPEDTAVYYCRALLQPSIYDISRTYWGQGTLVTVSS
notes: also called F0103275B05(N93R) + FLAG3-HIS6; F103275B05(N93R) + FLAG3-HIS6
IC50 [10]: 77 nM
IC50 [11]: 97 nM
IC50 [12]: 130 nM
Qpatch IC50 [13]: 57 nM
Qpatch IC50 [14]: 99 nM
IC50 [15]: 49 nM
IC50 [16]: 67 nM

Second part, the binder after the results:

Qpatch IC50 [1]: 12 nM
B2: F010301559 (VHH)
VHH: EVQLVESGGGLVQAGGSLRLSCAASGRILRIGYMRWHRQGAGKQREFVARITDGSATGYADSVKGRFTISRDNAKNTVYLQMNNLNPEDTAVYYCEALVTASVRGGSIHSGTYWGRGTLVTVSS

Qpatch IC50 [1]: 5 nM
B3: F010301563 (VHH)
VHH: EVQLVESGGGLVQAGGSLRLSCAASGRILRIGYMRWHRQGAGKQREFVARITDDSATGYADSVKGRFTISRDNAKNTVYLQMNNLNPEDTAVYYCEALVTASVRGGSIHSGTYWGRGTLVTVSS

Qpatch IC50 [1]: 18 nM
B4: F010301566 (VHH)
VHH: EVQLVESGGGLVQAGGSLRLSCDASGRILRIGYMRWHRQGAGKQREFVARITDGSATGYADSVKGRFTISRDNAKNTVYLQMNNLNPEDTAVYYCEALVTASVRGGSIHSGTYWGRGTLVTVSS

Qpatch IC50 [1]: 32 nM
B5: F010302391 (VHH)
VHH: EVQLVESGGGVVQPGGSLRLSCAASGRILRIGYMRWYRQAPGKQREFVARITGGSATGYADSVKGRFTISRDNAKNTVYLQMNSLRPEDTALYYCEALVTASVRGGSIHSGTYWGQGTLVTVSS

Bmax [17]: 100%
EC50 [17]: 2.8 nM
EC50 [18]: 2.9 nM
EC50 [19]: 1.9 nM
B18: F010302307 (VHH)
VHH: EVQLVESGGGVVQPGGSLRLSCAASGRILRIGYMRWYRQAPGKQREFVARITDDSATGYADSVKGRFTISRDAAKNTVYLQMNSLRPEDTALYYCEALVTASVRGGSIHSGTYWGQGTLVTVSS
notes: also called F0103387G05(L11V, A14P, D23A, H37Y, G40A, A41P, D58G, N73A, N82bS, N83R, V89L, R105Q)

Bmax [17]: 100%
EC50 [17]: 1.8 nM
EC50 [18]: 2 nM
EC50 [19]: 1.3 nM
B19: F010302308 (VHH)
VHH: EVQLVESGGGVVQPGGSLRLSCAASGRILRIGYMRWYRQAPGKQREFVARITDDSATGYADSVKGRFTISRDYAKNTVYLQMNSLRPEDTALYYCEALVTASVRGGSIHSGTYWGQGTLVTVSS
notes: also called F0103387G05(L11V, A14P, D23A, H37Y, G40A, A41P, D58G, N73Y, N82bS, N83R, V89L, R105Q)

binding result [20]: no binding
B20: F010302365 (VHH)
VHH: EVQLVESGGGVVQPGGSLRLSCAASSRAFIRDVFTGWYRRAPGKQRELVARIYNGGNTNYADSAKGRFTISRDNAKKTVYLQMNSLRPEDTALYYCLFSGTISTGREYRSGDYWGQGTLVTVSS
notes: also called F0103464B09(L11V, T24A, T25S, V40A, E44Q, F62S, S68T, M77T, T79Y, R81Q, S82aN, N82bS, K83R, G88A, V89L, N99S)

binding result [20]: no binding
B21: F010302366 (VHH)
VHH: EVQLVESGGGVVQPGGSLRLSCAASSRAFIRDVFTGWYRQAPGKQRELVARIYNGGNTNYADSAKGRFTISRDNAKKTVYLQMNSLRPEDTALYYCLFSGTISTGREYRSGDYWGQGTLVTVSS
notes: F010302365 background plus R39Q

Reference: US20240002497A1 (Merck Sharp & Dohme, published 2024)
